Entries after “also recorded” stand apart in the source; their conditions may differ.
Key:
SK-BR-3 cells = assay: Immunofluorescence in SK-BR-3 cells; format: cell-based, human; conditions: 1 μM RSL3, 4 h
[1] = test system: B cell lymphoma mouse xenograft tumor tissue (SU-DHL-6 cells); assay: Staining of B cell lymphoma mouse xenograft tumor tissue sections; conditions: 40 mg/kg IKE once daily IP for 14 days
Procedure: Tumor tissues were fixed in 4% paraformaldehyde (PFA) for 24 h at 4° C. followed by washing with PBS three times. The tissues were perfused in 30% sucrose for 24 h at 4° C. for cryo-protection. The samples were embedded in OCT cryostat sectioning medium, and then moved directly into a cryostat. After equilibration of temperature, frozen tumor tissues were cut into 5 μm thick sections. Tissue sections were mounted on to poly-L-lysine coated slides by placing the cold sections onto warm slides. Slides were stored at −80° C. until staining. For staining, slides were warmed to room temperature followed by washing with PBS twice. A hydrophobic barrier pen was used to draw a circle on each slide. The slides were permeabilized with PBS with 0.4% Triton X-100 (PBT) twice before non-specific-binding blocking by incubating the sections with 10% goat serum (ThermoFisher 50197Z) for 30 min at room temperature. […] All images were captured on a Zeiss LSM 800 confocal microscope at Plan-Apochromat 63×/1.40 Oil DIC objective with constant laser intensity for all analyzed samples. The intensity above threshold of the fluorescent signal of the bound antibodies was analyzed using NIH ImageJ software (ImageJ, RRID:SCR_003070). Data were expressed as fold change comparing with the vehicle. […]

[2] = biological target: T1, transferrin receptor protein 1 (Homo sapiens, UniProt P02786); assay: Immunoprecipitation-mass spectrometry antigen identification; format: binding; conditions: HT-1080 cell lysate, IP-MS
T1 construct: endogenous in cells; host or cells: HT-1080
Procedure: HT-1080 cells were seeded in DMEM (Corning 10-013-CM) and 10% Hi-FBS with 1% penicillin and streptomycin (PS) with 1% MEM Non-Essential Amino Acids Solution (100×) (Thermo Fisher Scientific 11140-076) 16 h prior to use. DMSO or 1 μM of RSL3 was added and incubated for 4 h. Following treatment, the medium was aspirated from each dish and cells were washed twice with PBS. Cells were lysed with 70 μl lysis buffer (RIPA buffer from ThermoFisher, cat. 89900, 1 mM EDTA, 1 mM PMSF, 1× Halt™ protease inhibitor cocktail from ThermoFisher, cat. 78430 and 1× Halt™ phosphatase inhibitor cocktail from ThermoFisher, cat. 78426). Unlysed cells and debris were pelleted for 15 min at 16,000×g at 4° C. The samples were incubated with 10 μg of 3F3 FMA overnight at 4° C. with shaking. The next day, Thermo Scientific Pierce Protein AG Magnetic Beads (Thermo Fisher Scientific 88802) were washed with TBS with 0.05% Tween 20 (wash buffer) and then were incubated with sample/antibody mixture for 1 h with mixing. The beads were collected with a magnetic stand and then washed with wash buffer for three times. The beads were used for mass spectrometry.
Trypsin digestion was performed overnight at 37° C. […] CID fragmentation was applied with 35% collision energy and resulting fragments were detected using the rapid scan rate in the ion trap. […]
Raw mass spectrometric data were analyzed using MaxQuant v. […]

T1 sequence (P02786 whole entry): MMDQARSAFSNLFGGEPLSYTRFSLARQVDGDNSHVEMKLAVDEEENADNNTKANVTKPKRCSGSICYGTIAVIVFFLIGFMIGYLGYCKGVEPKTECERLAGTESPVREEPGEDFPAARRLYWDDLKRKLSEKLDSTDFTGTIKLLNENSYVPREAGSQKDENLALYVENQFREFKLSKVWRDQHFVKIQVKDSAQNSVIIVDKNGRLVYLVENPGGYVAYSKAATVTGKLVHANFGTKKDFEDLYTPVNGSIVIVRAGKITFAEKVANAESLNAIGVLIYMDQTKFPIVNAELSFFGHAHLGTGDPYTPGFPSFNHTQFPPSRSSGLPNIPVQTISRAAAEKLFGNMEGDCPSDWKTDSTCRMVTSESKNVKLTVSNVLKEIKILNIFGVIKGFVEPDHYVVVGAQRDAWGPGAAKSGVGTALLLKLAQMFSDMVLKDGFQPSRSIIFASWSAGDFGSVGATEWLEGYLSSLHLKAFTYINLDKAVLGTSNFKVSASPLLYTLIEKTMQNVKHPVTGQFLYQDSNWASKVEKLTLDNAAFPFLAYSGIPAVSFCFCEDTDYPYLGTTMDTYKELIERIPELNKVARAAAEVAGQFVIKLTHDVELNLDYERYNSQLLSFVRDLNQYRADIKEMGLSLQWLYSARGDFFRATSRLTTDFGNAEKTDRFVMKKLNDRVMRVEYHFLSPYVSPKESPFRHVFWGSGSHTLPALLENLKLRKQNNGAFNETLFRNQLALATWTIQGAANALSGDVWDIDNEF

B1: 3F3-FMA: Murine monoclonal IgG1 raised against ferroptotic membrane fractions; antigen is transferrin receptor protein 1 (TfR1) (antibody, V domains shown)
VH: EVLLQQSGTELVRPGALVKLSCKASGFNIQDLYIHWVKQRPEQGLEWIGWIDPETDNTIYDPKFQGKASITADTSSNTAYLQLSSLTSEDTAMYYCSTGLLQWYFDVWGAGTAVTVSS
VL: DIVMTQSPSSLAMSIGQKVTMRCKSSQSLLNSYNQKNCLAWYQQKPGQSPKLLLYFVSTRESGVPDRFIGSGSGTDFTLTISSVQAEDLADYFCQQHYSTPLTFGAGTKLELK
In the case of B1, the “3F3-FMA staining upon ferroptosis induction” value (SK-BR-3 cells) is reported as “concentrated at the cell boundaries and became brighter”, the “antibody staining intensity in IKE-treated vs vehicle tumor tissue” value [1] is reported as “did not detect its antigen; also recorded: no difference” and the “amino acid coverage of TfR1” value [2] is reported as 53%. The “confidence of identification of transferrin receptor protein 1 as target antigen” value [2] was 63%.

— US20230140200A1, “COMPOSITIONS AND METHODS FOR DETECTING CELLS UNDERGOING FERROPTOSIS USING AN ANTIBODY” (THE TRUSTEES OF COLUMBIA UNIVERSITY IN THE CITY OF NEW YORK, priority 2020, published 2023)
